Measured values taken from paper doi:10.1101/2025.02.06.636884.

Molecular target: cytosolic fragment of the McpN chemoreceptor (Pseudomonas aeruginosa PAO1)
Experiment: ITC

## CheV D238E (natural protein)
  KD of the first binding event (high affinity, endothermic): 8 nM
  KD of the second binding event (lower affinity, exothermic): 3000 nM
  N of the first binding event: 0.5
